Reference: PMC11459484

Target: Selenomonas sp. HNH-Cascade Cas7 (Cas7f1) (Selenomonas sp.)
Test: cryo-EM structure; SsCascade RNP (Cas5/6/7/8 and processed crRNA) co-expressed in E. coli, purified by Ni-NTA and gel filtration, mixed with target DNA at ambient temperature for 5 minutes; Map A 3.48 Å, Map B 3.28 Å

stoichiometry N: 6
Substance: Selenomonas sp. HNH-Cascade Cas7 (Cas7f1) (natural protein)
